From patent US20220396792, “METHOD FOR PRODUCING NUCLEIC ACID MOLECULE, BIOMATERIAL, AND METHOD FOR PRODUCING BIOMATERIAL” (NEC Solution Innovators, Ltd., published 2022)

B1: Aptamer 5 VEGF746CaP_R8m49 with 3' poly(dA)20 (ssDNA)
DNA: GGATTGCCCGATTCACCGTAAACGTTCTTACATTAGTTTAAAGTCACGTCTTAGTTTAATTAAGCATTCTGGAGCGGCATAACAAAAAAAAAAAAAAAAAAAA
B2: Aptamer 4 VEGF746CaP_5s62 with 3' poly(dA)20 (ssDNA)
DNA: TTCACCGTAAACAGTTCTGGTTCCTTAGTTTAAAGTCACGTCTTAGTTTAAGGCATTCTGGAAAAAAAAAAAAAAAAAAAAA
B3: Aptamer 2 VEGF746CaP_5s31 with 3' poly(dA)20 (ssDNA)
DNA: CCTTAGTTTAAAGTCACGTCTTAGTTTAAGGAAAAAAAAAAAAAAAAAAAA
B4: Aptamer 1 VEGF746CaP_R8m1 with 3' poly(dA)20 (ssDNA)
DNA: GGATTGCCCGATTCACCGTAAACAGTTCTGGTTCCTTAGTTTAAAGTCACGTCTTAGTTTAAGGCATTCTGGAGCGGCATAACAAAAAAAAAAAAAAAAAAAA
B5: Aptamer 3 VEGF746CaP_5s49 with 3' poly(dA)20 (ssDNA)
DNA: CCGTAAACAGTTCTGGTTCCTTAGTTTAAAGTCACGTCTTAGTTTAAGGAAAAAAAAAAAAAAAAAAAA

The binders below were run against VEGF receptor (KDR/VEGFR2) (UniProt P35968 P35968:20-764) (assay: SPR; 5 nM receptor alone, 25 C; receptor binds aptamer-bound VEGF165). Conditions: tags: R&D Systems 357-KD-050/CF; chain copies: 2.
Protocol: The aptamers 1 to 5 were used as aptamers, and the VEGF sample and a VEGF receptor sample were used as samples. The VEGF receptor sample was prepared in the same manner as the VEGF sample, except that a VEGF receptor (R&D systems, Cat. No: 357-KD-050/CF) was used instead of the VEGF.
The analysis of binding properties by SPR was carried out in the following manner. First, biotinylated poly(dT) was bound to the sensor chip and each of the poly(dA)-added aptamers was then bound to the chip in the same manner as in Example 1. Subsequently, the 5 nmol/L VEGF sample was injected using an SB1T buffer at a flow rate of 50 μL/min for 240 seconds (first injection), followed by washing performed by flowing the SB1T buffer under the same conditions. Thereafter, the 5 nmol/L VEGF receptor sample was injected using an SB1T buffer at a flow rate of 50 μL/min for 240 seconds (second injection), followed by washing performed by flowing the SB1T buffer under the same conditions. With the time at which the first injection was started being 0 seconds, the signal intensity after the sample injection was measured. The SPR was carried out at 25° C. Also, analysis of binding properties by SPR was carried out in the same manner, except that the first and second injections were performed using the combinations shown in Table 1 below instead of the combination of the VEGF sample and the VEGF receptor sample.
FIGS. 8A to 8E are graphs respectively showing the binding properties of the aptamers 1 to 5 to the samples. […] The horizontal axis indicates the time (sec) elapsed after the start of the first injection, and the vertical axis indicates the signal intensity (RU).

Sequence of VEGF receptor (KDR/VEGFR2) (P35968 20-764, one chain of several): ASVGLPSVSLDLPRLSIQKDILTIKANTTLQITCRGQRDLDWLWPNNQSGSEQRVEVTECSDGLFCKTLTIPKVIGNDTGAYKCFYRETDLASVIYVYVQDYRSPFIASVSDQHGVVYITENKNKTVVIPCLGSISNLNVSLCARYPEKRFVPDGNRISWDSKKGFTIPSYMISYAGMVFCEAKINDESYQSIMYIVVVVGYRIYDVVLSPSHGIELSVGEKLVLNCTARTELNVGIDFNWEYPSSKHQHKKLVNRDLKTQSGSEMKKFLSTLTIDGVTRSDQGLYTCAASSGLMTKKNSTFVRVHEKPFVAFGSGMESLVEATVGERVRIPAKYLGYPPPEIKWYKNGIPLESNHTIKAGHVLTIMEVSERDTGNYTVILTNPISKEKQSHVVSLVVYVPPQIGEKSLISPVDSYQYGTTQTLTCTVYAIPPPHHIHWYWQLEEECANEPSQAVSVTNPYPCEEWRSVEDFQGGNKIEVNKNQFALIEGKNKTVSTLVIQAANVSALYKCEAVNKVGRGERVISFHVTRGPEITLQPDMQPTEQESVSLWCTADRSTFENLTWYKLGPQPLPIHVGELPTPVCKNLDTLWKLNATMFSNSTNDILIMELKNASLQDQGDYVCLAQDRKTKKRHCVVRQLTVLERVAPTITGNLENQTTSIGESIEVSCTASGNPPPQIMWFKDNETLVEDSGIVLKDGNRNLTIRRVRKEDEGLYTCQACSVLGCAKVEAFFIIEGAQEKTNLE

Binder | binding result
B1 | no binding
B2 | no binding
B3 | no binding
B4 | no binding
B5 | no binding

Each binder was assayed against T1, VEGF165 (UniProt P15692-4 P15692-4:27-191) (assay: SPR; 25 C, SB1T pH 7.4, 1 mM MgCl2, 0.01% Tween 20). Conditions: tags: PeproTech 100-20; chain copies: 2.
Protocol: (§1) First, as a sensor chip designed specifically for the ProteOn, a streptavidin-immobilized chip (trade name: ProteOn NLC Sensor Chip, BioRad) was set in the ProteOn XPR36. 5 μmol/L biotinylated poly(dT) was injected to a flow cell of the sensor chip using ultrapure water (DDW), and the binding was allowed to proceed until the signal intensity (RU: Resonance Unit) was saturated. The biotinylated poly(dT) was prepared by biotinylating the 5′ end of 20-mer deoxythymidine. Then, each of the poly(dA)-added aptamers (200 nmol/L) was injected to the flow cell of the chip using an SB1T buffer at a flow rate of 25 μL/min for 80 seconds, and the binding was allowed to proceed until the signal intensity was saturated. Subsequently, each of the samples (5 nmol/L) was injected using an SB1T buffer at a flow rate of 50 μL/min for 300 seconds, followed by washing performed by flowing the SB1T buffer under the same conditions. With the time at which the injection was started being 0 seconds, the signal intensity after the sample injection was measured. The SPR was carried out at 25° C.
The pH of the SB1T buffer was 7.4.

T1 sequence (P15692 other isoform, or with tags, fused parts or gaps): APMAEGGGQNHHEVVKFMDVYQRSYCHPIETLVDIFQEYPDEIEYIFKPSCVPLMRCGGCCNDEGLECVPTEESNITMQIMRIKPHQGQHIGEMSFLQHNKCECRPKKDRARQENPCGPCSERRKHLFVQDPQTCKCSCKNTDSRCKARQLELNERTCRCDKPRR

Binder | Kd [nM]
CCTTAGTTTAAAGTCACGTCTTAGTTTAAGAAAAAAAAAAAAAAAAAAAA (ssDNA) [Aptamer 7 VEGF_L30_2 with 3' poly(dA)20] | < 0.001
TAGTTTAAAGTCACGTCTTAGTTTAAAAAAAAAAAAAAAAAAAAAA (ssDNA) [Aptamer 12 VEGF_L26_1 with 3' poly(dA)20] | 0.0545
CTTAGTTTAAAGTCACGTCTTAGTTTAAGGAAAAAAAAAAAAAAAAAAAA (ssDNA) [Aptamer 6 VEGF_L30_1 with 3' poly(dA)20] | < 0.001
CTTAGTTTAAAGTCACGTCTTAGTTTAAAAAAAAAAAAAAAAAAAAAA (ssDNA) [Aptamer 10 VEGF_L28_2 with 3' poly(dA)20] | 4170
AGTTTAAAGTCACGTCTTAGTTTAAAAAAAAAAAAAAAAAAAA (ssDNA) [Aptamer 15 VEGF_L23_1 with 3' poly(dA)20] | 92.7
TTAGTTTAAAGTCACGTCTTAGTTTAAGAAAAAAAAAAAAAAAAAAAA (ssDNA) [Aptamer 9 VEGF_L28_1 with 3' poly(dA)20] | 0.0149
CTTAGTTTAAAGTCACGTCTTAGTTTAAGAAAAAAAAAAAAAAAAAAAA (ssDNA) [Aptamer 8 VEGF_L29_1 with 3' poly(dA)20] | 0.0993
TTAGTTTAAAGTCACGTCTTAGTTTAAAAAAAAAAAAAAAAAAAAA (ssDNA) [Aptamer 13 VEGF_L26_2 with 3' poly(dA)20] | 3.49
TAGTTTAAAGTCACGTCTTAGTTTAAAAAAAAAAAAAAAAAAAAA (ssDNA) [Aptamer 14 VEGF_L25_1 with 3' poly(dA)20] | 800
TTAGTTTAAAGTCACGTCTTAGTTTAAAAAAAAAAAAAAAAAAAAAA (ssDNA) [Aptamer 11 VEGF_L27_1 with 3' poly(dA)20] | 0.0276

These binders were tested against BSA (bovine serum albumin) (Bos taurus, UniProt P02769 P02769:25-607) (assay: SPR; signal 0 or less, 5 nM, 25 C). Conditions: tags: Sigma A7906.
Protocol: (§2) The analysis of the binding properties was carried out using a ProteOn XPR36 (BioRad) in accordance with its instructions for use.
as §1
(§3) The horizontal axis indicates the time (sec) elapsed after the start of the sample injection, and the vertical axis indicates the signal intensity (RU).

Sequence of BSA (bovine serum albumin) (P02769 25-607, one chain of several): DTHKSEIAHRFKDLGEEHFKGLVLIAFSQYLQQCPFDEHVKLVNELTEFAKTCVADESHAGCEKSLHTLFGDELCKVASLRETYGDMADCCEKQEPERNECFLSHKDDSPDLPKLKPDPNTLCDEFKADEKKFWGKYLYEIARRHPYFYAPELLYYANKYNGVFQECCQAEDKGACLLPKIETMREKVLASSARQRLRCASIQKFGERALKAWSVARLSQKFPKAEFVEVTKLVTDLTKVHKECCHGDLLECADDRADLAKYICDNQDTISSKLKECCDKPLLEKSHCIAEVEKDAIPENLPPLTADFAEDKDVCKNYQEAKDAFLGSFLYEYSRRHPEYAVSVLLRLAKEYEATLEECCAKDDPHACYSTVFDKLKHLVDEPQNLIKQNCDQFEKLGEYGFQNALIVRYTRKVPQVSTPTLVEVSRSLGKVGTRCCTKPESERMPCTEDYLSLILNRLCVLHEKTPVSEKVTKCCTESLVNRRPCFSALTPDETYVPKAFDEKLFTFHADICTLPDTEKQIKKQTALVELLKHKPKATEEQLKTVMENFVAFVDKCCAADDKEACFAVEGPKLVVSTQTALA

Binder | binding result
B1 | no binding
B2 | no binding
B3 | no binding
B4 | no binding
B5 | no binding

Each binder was assayed against VEGF121 (UniProt P15692-9 P15692-9:27-147) (assay: SPR; signal 0 or less, 5 nM, 25 C). Conditions: tags: PeproTech 100-20A; chain copies: 2.
Protocol: as §2, §1, §3

Sequence of VEGF121 (P15692 other isoform, or with tags, fused parts or gaps): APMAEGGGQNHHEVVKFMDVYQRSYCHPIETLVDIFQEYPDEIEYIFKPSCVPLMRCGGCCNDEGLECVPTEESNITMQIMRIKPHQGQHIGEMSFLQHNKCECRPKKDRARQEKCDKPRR

Binder | binding result
B1 | no binding
B2 | no binding
B3 | no binding
B4 | no binding
B5 | no binding

Each binder was assayed against T1, VEGF165 (assay: SPR; 37 C, no Ca, 1 nM VEGF165). Conditions: tags: PeproTech 100-20; chain copies: 2.

Binder | binding result
B1 | binds
B2 | binds
B3 | binds
B4 | binds
B5 | binds
